For one assay, the target named is T1, P5SH.
T1 chain: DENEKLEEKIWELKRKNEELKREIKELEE
Description: two-hybrid library CCNG1.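 Note: natural log of median RNA to DNA barcode read ratio; higher means stronger binding.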

The target of assay [1] is T2, P6SH.
T2 chain: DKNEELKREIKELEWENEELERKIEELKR
As to the kind of experiment: two-hybrid library CCNG1.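 Note: natural log of median RNA to DNA barcode read ratio; higher means stronger binding.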

A further assay concerns the target T3, P7SH.
T3 chain: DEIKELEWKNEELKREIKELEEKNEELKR
As to the kind of experiment: two-hybrid library CCNG1.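 Note: natural log of median RNA to DNA barcode read ratio; higher means stronger binding.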

Another assay deals with T4, P8SH.
T4 chain: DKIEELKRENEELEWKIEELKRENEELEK
As to the kind of experiment: two-hybrid library CCNG1.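 Note: natural log of median RNA to DNA barcode read ratio; higher means stronger binding.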

For assay [2], the target named is T2, P6SH. Description: two-hybrid library CCmax.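 Note: natural log of median RNA to DNA barcode read ratio; higher means stronger binding.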 Particulars: mean of both orientations.
In a further assay the target is T5, Core_NNNN-es_KKKK.
T5 chain: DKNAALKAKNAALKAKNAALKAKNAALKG
Description: two-hybrid library CCmax.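 Note: natural log of median RNA to DNA barcode read ratio; higher means stronger binding.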 The conditions noted are these: mean of both orientations.

The target of another assay is T6, P2-AA-1HAA-D.
T6 chain: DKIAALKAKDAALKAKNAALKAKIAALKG
Description: two-hybrid library CCmax. The conditions noted are these: mean of both orientations.

In another assay the target is T7, P2-AA-1HAA-I.
T7 chain: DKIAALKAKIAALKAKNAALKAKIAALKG
Description: two-hybrid library CCmax. Particulars: mean of both orientations.

A further assay deals with T8, P2-AA-1HAA-K.
T8 chain: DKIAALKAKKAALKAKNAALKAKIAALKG
As to the kind of experiment: two-hybrid library CCmax. The conditions noted are these: mean of both orientations.

In the next assay the target is T9, P2-AA-1HAA-L.
T9 chain: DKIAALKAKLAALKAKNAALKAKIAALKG
As to the kind of experiment: two-hybrid library CCmax. Particulars: mean of both orientations.

The target in a further assay is T10, P2-AA-1HAA-R.
T10 chain: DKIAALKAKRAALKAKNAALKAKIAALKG
Description: two-hybrid library CCmax. The conditions noted are these: mean of both orientations.

The target of the next assay is T11, P2-AA-1HAA-S.
T11 chain: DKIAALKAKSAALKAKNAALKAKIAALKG
As to the kind of experiment: two-hybrid library CCmax. The conditions noted are these: mean of both orientations.

The next assay concerns the target T12, P2-AA-1HAA-T.
T12 chain: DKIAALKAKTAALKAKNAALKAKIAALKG
Description: two-hybrid library CCmax. Particulars: mean of both orientations.

For the next assay, the target named is T13, P2-AA.
T13 chain: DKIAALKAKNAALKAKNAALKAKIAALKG
As to the kind of experiment: two-hybrid library CCmax. The conditions noted are these: mean of both orientations.

Turning to DENEKLEEKIWELKRKNEELKREIKELEE [P5SH], the interaction score with P5SH is -0.706; in the assay with P6SH [1], 1.84; in the assay with P7SH, -0.619; with P8SH, 0.809; in the assay with P6SH [2], 0.801.
The molecule DENAALEAENAALEAENAALEAENAALEG [Core_NNNN-es_EEEE] returned an interaction score in the assay with Core_NNNN-es_KKKK of 1.53.
With DEIAALEAEDAALEAENAALEAEIAALEG [P1-AA-1HAA-D], the interaction score came out at 0.443 with P2-AA-1HAA-D; 1.89 with P2-AA-1HAA-I; 1.56 with P2-AA-1HAA-K; 2.16 with P2-AA-1HAA-L; 1.66 in the assay with P2-AA-1HAA-R; 1.57 in the assay with P2-AA-1HAA-S. In addition, the interaction score in the assay with P2-AA-1HAA-T was 1.59; in the assay with P2-AA, 2.18.

The record behind these values is publication PMC10397247.
